This test concerns the target T1, 6xHis-tagged human Hub1 (human, UniProt Q9BZL1 1-73).
T1 construct: human Hub1 (UBL5) expressed from pET28a; also called UBL5; purified Hub1; source: E. coli BL21-CodonPlus (DE3)-RIL, purified (Ni-NTA, Superdex 75)
T1 sequence: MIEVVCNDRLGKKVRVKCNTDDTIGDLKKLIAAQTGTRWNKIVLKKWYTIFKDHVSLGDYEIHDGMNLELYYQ
The test can be described thus: crystal structure; Hub1 mixed with the HIND peptide at a molar ratio of 1:3, complex separated on Superdex 75; crystals at 20°C in 0.1 M Tris/HCl pH 9.0, 0.15 M sodium acetate, 20% PEG 4000; 2.0 Å. As to conditions: both partners purified.

B1: hSnu66 HIND peptide (residues 117-135) (peptide)
peptide: SLSIEETNKLRAKLGLKPL
notes: residues 117-135 of human Snu66 (SART1), the single HIND element; source: synthetic peptide
In the case of B1, the binding result was “binds”.

The values are drawn from PMC4141198, “The conserved ubiquitin-like protein Hub1 plays a critical role in splicing in human cells” (Journal of Molecular Cell Biology, 2014).
